One may read the Kd as the concentration at which binding is half-saturated. As usually defined, the EC50 is the concentration needed to bring the measured effect to its halfway point. Low readings indicate an effect from little substance, high ones a need for much substance.

Drawing on US20260116983A1 (University of California, published 2026), this text covers Kd and EC50 for 16 molecules.

Numbering of substitutions follows the chain as printed.

Assay [1] addresses T1, human uPAR (recombinant protein used in ELISA and BLI) (human, UniProt Q03405 23-305, limits assumed).
T1 construct: Whole entry named; also called biotinylated human uPAR
The assay can be described thus: BLI (Octet HTX). The protocol: (§1) Kinetic constant ranges for Octet HTX were between 1 mM to 10 pM.
On the technique in general: BLI is a label-free optical method that tracks binding on a fibre tip over time.

In assay [2] the target is T2, cynomolgus uPAR (recombinant) (cynomolgus monkey, UniProt Q9GK78 23-303, limits assumed).
T2 construct: also called cyno uPAR; AF647-cyno uPAR
T2 sequence (looked up): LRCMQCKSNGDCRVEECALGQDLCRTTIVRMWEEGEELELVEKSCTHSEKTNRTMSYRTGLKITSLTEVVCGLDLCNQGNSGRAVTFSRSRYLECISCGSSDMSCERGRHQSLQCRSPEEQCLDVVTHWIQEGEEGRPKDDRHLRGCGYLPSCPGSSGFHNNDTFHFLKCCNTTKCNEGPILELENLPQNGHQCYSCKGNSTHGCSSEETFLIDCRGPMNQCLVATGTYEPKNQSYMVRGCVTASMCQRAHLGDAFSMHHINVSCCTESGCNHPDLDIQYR
The assay can be described thus: BLI (Octet HTX). The protocol:
as §1

In assay [3] the target is T3, human uPAR displayed on the surface of MDA-MB-231 cells (human, UniProt Q03405 23-305).
T3 construct: whole, on cells; also called cell-surface uPAR; cellular uPAR
Nature of the assay: flow cytometry on MDA-MB-231 cells. In general terms: In flow cytometry, cells or beads pass a laser one at a time.

T3 sequence (Q03405 23-305): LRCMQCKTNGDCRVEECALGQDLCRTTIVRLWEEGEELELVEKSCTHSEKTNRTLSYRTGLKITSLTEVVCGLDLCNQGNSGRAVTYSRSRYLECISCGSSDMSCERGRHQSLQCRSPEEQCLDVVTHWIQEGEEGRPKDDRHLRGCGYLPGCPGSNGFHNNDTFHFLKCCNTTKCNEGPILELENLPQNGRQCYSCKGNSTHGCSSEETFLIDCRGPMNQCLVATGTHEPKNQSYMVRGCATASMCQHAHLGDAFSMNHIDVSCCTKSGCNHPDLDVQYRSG
T1 sequence (Q03405 23-305 limits assumed): as the sequence (Q03405 23-305) above

B1: 3159 HC1 + LC3 (humanized) (antibody, V domains shown)
VH: QVTLRESGPALVKPTQTLTLTCTLSGFSLSTSGMGVSWIRQPPGKALEWLAHIYWDDDKRYSTSLKTRLTISKDASKDQVVLTMTNMDTVDTATYYCGRRVRNYFSGTSYWYFDVWGTGTLVTVSS
VL: DIVMTQSPLSLPVTPGEPASISCRSSQNILHRTGNTYLDWYLQKPGQSPQLLIYKVSNRFSGVPDRFSGSGSGTDFTLKISRVEAEDVGVYYCFQGSYVPFTFGQGTKLEIK
notes: detected with anti-human Fc antibody
For B1, the dissociation constant (Kd) in assay [1] was determined as 5.58 nM; in assay [2], 162 nM. Also, the concentration giving a half-maximal response (EC50) in assay [3] was 0.27 µg/mL.

B2: 3159 HC3 + LC2 (humanized) (antibody, V domains shown)
VH: B1 VH with V2I, R5K, A10T, S62N, T63P, T67S, S72T
VL: B1 VL with I2V, P15L, E17Q, D39E, Y41F, L42Q, K44R, Q50R
notes: as for B1
As to B2, the dissociation constant (Kd) in assay [1] turned out to be 4.66 nM; in assay [2], 2240 nM. In assay [3], this molecule returned an EC50 of 0.214 µg/mL.

B3: 3159 HC3 + LC1 (humanized) (antibody, V domains shown)
VH: B1 VH with V2I, R5K, A10T, S62N, T63P, T67S, S72T
VL: B1 VL with S7T, P12S, E17Q, R24K, D39E, S48P
notes: as for B1
As to B3, the dissociation constant Kd in assay [1] was under 0.01 nM; in assay [2], 202 nM. Besides, the response in assay [3] was half-maximal at 0.488 µg/mL (EC50).

B4: 3159 HC2 + LC2 (humanized) (antibody, V domains shown)
VH: B1 VH with R5K, A10V, Q16E, L24V, A46G, T63P, T67S
VL: B1 VL with I2V, P15L, E17Q, D39E, Y41F, L42Q, K44R, Q50R
notes: as for B1
Regarding B4, the Kd in assay [1] is under 0.01 nM; in assay [2], 404 nM. The molecule also returned an EC50 in assay [3] of 0.32 µg/mL.

B5: 3159 HC2 + LC1 (humanized) (antibody, V domains shown)
VH: B1 VH with R5K, A10V, Q16E, L24V, A46G, T63P, T67S
VL: B1 VL with S7T, P12S, E17Q, R24K, D39E, S48P
notes: as for B1
As for B5, the Kd was under 0.01 nM in assay [1] and 41.1 nM in assay [2]. Further, the EC50 in assay [3] is 0.379 µg/mL.

B6: 3159 HC3 + LC3 (humanized) (antibody, V domains shown)
VH: B1 VH with V2I, R5K, A10T, S62N, T63P, T67S, S72T
VL: B1 VL
notes: as for B1
For the molecule B6, the dissociation constant Kd in assay [1] was 7.39 nM; in assay [2] it was 58.5 nM. This molecule also displayed an EC50 in assay [3] of 0.185 µg/mL.

B7: 3159 HC1 + LC1 (humanized) (antibody, V domains shown)
VH: B1 VH
VL: B1 VL with S7T, P12S, E17Q, R24K, D39E, S48P
notes: as for B1
For the molecule B7, the values for the Kd in assay [1] and in assay [2] were 6.79 nM and 556 nM, respectively. Also, the EC50 in assay [3] was found to be 0.187 µg/mL.

B8: 3159 HC2 + LC3 (humanized) (antibody, V domains shown)
VH: B1 VH with R5K, A10V, Q16E, L24V, A46G, T63P, T67S
VL: B1 VL
notes: as for B1
On to B8, for which the results for the dissociation constant (Kd) in assay [1] and in assay [2] were under 0.01 nM and 255 nM, respectively. Besides, in assay [3], the concentration for a half-maximal effect (EC50) was determined as 0.205 µg/mL.

B9: 3159 HC1 + LC2 (humanized) (antibody, V domains shown)
VH: B1 VH
VL: B1 VL with I2V, P15L, E17Q, D39E, Y41F, L42Q, K44R, Q50R
notes: as for B1
Regarding B9, the dissociation constant Kd in assay [1] is under 0.01 nM; in assay [2], 5870 nM. The response in assay [3] was half-maximal at 0.518 µg/mL (EC50).

B10: 11857 HC1 + LC1 (humanized) (antibody, V domains shown)
VH: EVQLVQSGAEVKKPGATVKISCKVSGYTFTDYYMNWVQQAPGKSLEWMGNINPNNGGTDYNQKFQGRVTITADKSTSTAYMELSSLRSEDTAVYYCARSYGSRFPYWGLGTLVTVSS
VL: DIQMTQSPSSLSASVGDRVTITCRASQDITNYLSWYQQKPGGTVKLLLYYTAVLQSGFPSRFSGSGSGADYTLTISSLQPEDFATYYCQQGHTLPWTFGGGTKVEIK
notes: as for B1
B10: the equilibrium dissociation constant (Kd) in assay [1] was determined as 127 nM; in assay [2], 69.7 nM. The EC50 in assay [3] is 0.695 µg/mL.

B11: 11857 HC2 + LC1 (humanized) (antibody, V domains shown)
VH: B10 VH with T17S, I20V, V24A, Q38R, N61S, A72V, K74T, T76A
VL: B10 VL
notes: as for B1
For the molecule B11, the dissociation constant Kd is 125 nM in assay [1] and 307 nM in assay [2]. This molecule had an EC50 in assay [3] of 0.432 µg/mL.

B12: 11857 HC1 + LC2 (humanized) (antibody, V domains shown)
VH: B10 VH
VL: B10 VL with L48I, Y49F, Y71F, F83V
notes: as for B1
Take B12: the Kd in assay [1] is 53.4 nM; in assay [2] it was 32.4 nM. Further, the EC50 in assay [3] came out at 0.223 µg/mL.

B13: 11857 HC1 + LC3 (humanized) (antibody, V domains shown)
VH: B10 VH
VL: B10 VL with Y36F, L48I, Y71F
notes: as for B1
For B13, it took 1.21 µg/mL to reach a half-maximal effect in assay [3] (EC50).

B14: 11857 HC3 + LC2 (humanized) (antibody, V domains shown)
VH: EVQLVQSGAEVKKPGASVKVSCKASGYTFTDYYMNWVRQAPGKSLEWMGNINPNNGGTDYNQKFQGRVTLTVDTSISTAYMELSRLRSDDTVVYYCARSYGSRFPYWGLGTLVTVSS
VL: B10 VL with L48I, Y49F, Y71F, F83V
Regarding B14, the Kd came to 75.6 nM in assay [1] and 59.6 nM in assay [2].

B15: 11857 HC2 + LC2 (humanized) (antibody, V domains shown)
VH: B14 VH with N61S, L70I, I76A, R85S, D89E, V92A
VL: B10 VL with L48I, Y49F, Y71F, F83V
notes: as for B1
B15: the figures for the Kd in assay [1] and in assay [2] were 45.7 nM and 59.5 nM, respectively. In assay [3], this molecule came in with a 50% effective concentration (EC50) of 0.212 µg/mL.

B16: 11857 HC3 + LC1 (humanized) (antibody, V domains shown)
VH: B14 VH
VL: B10 VL
notes: as for B1
Turning to B16, the results for the Kd in assay [1] and in assay [2] were 147 nM and 83.9 nM, respectively. In addition, the half-maximal effective concentration (EC50) in assay [3] is 0.304 µg/mL.
